We go through one molecule from patent US20260124314A1, “ANTl-5T4 ANTIGEN BINDING DOMAINS, ANTIBODY-DRUG CONJUGATES AND METHODS OF USE THEREOF” (Salubris Biotherapeutics, Inc., priority 2023, published 2026).

For one assay, the target named is T1, FcγRIIIb (UniProt O75015 17-200, limits assumed).
T1 construct: also called Fc gamma receptor IIIb
As to the kind of experiment: SPR (Biacore 8K), antibody captured on Protein A chip, Fc receptor as analyte. The protocol:
(§1) A total of 5 Fc receptors, including FcγRI (Abcam), FcγRIIa, FcγRIIb, FcγRIIIa (158V), and FcγRIIIb (Sino Biological), were analyzed. […] SPR kinetic experiments were performed on Biacore 8K systems (GE Healthcare) with HBS-EP+ as running buffer. […] Capture level for each ligand was maintained between 50-100RU. […] After each binding cycle, the sensor chip was regenerated with glycine solution, pH 1.5. The resulting sensorgrams were fitted with a one-to-one binding model to extract kinetic constants using Biacore 8K Evaluation Software.

For the next assay, the target named is T2, FcγRIIIa (158V) (UniProt P08637 17-208).
T2 construct: 158 is usually counted on the mature protein (176 on the precursor); also called Fc gamma receptor IIIa
The description is as above. The protocol:
as §1

Assay [1] concerns the target T3, recombinant human 5T4 protein (human, UniProt Q13641 32-355).
T3 construct: The ELISA protein was bought (Sino biologics and Biorbyt); also called recombinant 5T4 protein; trophoblast glycoprotein (TPBG)
T3 sequence: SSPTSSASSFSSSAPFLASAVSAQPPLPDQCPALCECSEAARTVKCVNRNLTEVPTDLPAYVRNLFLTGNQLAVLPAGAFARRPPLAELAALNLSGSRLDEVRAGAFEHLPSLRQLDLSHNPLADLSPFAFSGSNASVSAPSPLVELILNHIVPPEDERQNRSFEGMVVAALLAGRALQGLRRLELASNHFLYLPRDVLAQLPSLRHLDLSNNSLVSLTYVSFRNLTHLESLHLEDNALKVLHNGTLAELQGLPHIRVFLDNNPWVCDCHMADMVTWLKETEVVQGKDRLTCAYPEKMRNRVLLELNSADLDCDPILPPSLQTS
As to the kind of experiment: SPR (Biacore 8K), antibody captured on Protein A chip, 5T4 as analyte 0.625-10 nM, 1:1 model. As for the experimental part: The binding affinity of anti-5T4 bispecific antibody-drug conjugate monospecific and bispecific antibodies to 5T4 was measured by Biacore kinetic experiments using a Protein A sensor chip on Biacore 8K (Cytiva) with HBS-EP+ as running buffer. […] After each binding cycle, the sensor chip was regenerated with glycine solution, pH 1.5. Signals from reference surface and an ensemble of buffer blank injections were subtracted from binding signals to correct for nonspecific binding and injection artifacts. The corrected experimental signals were globally fitted to a 1:1 binding model to extract kinetic constants, including association rate constant (ka), dissociation rate constant (kd), and equilibrium dissociation constant (KD), using the Biacore 8K Evaluation Software.

In the next assay the target is T4, FcγRI (Abcam) (UniProt P12314 16-288, limits assumed).
T4 construct: also called Fc gamma receptor I
As to the kind of experiment: SPR (Biacore 8K), antibody captured on Protein A chip, Fc receptor as analyte, 1:1 model. As for the experimental part:
as §1
A general note: Surface plasmon resonance follows binding to a sensor surface in real time, without labels.

The next assay addresses T5, FcγRIIa (UniProt P12318 34-218, limits assumed).
T5 construct: also called Fc gamma receptor IIa
T5 sequence (looked up): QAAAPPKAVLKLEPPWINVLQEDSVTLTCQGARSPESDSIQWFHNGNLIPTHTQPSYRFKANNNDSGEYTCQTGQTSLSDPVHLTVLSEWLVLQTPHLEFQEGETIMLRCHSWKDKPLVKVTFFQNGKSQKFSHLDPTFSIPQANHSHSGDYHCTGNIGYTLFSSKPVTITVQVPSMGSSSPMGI
The description is as above. The protocol:
as §1

The target in the next assay is T6, FcγRIIb (UniProt P31994 43-217, limits assumed).
T6 construct: also called Fc gamma receptor IIb
T6 sequence (looked up): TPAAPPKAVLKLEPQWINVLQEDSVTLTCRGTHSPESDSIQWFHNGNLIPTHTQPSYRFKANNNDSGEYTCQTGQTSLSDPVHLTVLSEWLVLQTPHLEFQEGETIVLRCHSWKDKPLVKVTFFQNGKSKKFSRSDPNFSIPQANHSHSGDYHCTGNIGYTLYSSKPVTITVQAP
Described as above. The protocol:
as §1

By Kd is commonly meant the constant that tells how readily two partners part at equilibrium.

T1 sequence (O75015 17-200 limits assumed): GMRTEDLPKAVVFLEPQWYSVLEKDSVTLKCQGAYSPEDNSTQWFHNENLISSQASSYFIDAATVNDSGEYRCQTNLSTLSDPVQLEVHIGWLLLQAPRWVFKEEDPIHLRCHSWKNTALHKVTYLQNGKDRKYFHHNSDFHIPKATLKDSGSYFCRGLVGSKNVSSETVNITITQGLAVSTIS
T2 sequence (P08637 17-208 F176V): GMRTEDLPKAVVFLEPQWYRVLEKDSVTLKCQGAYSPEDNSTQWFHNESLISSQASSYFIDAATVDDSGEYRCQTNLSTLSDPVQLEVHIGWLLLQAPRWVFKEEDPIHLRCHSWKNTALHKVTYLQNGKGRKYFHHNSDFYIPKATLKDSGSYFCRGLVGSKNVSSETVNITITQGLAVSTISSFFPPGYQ
T4 sequence (P12314 16-288 limits assumed): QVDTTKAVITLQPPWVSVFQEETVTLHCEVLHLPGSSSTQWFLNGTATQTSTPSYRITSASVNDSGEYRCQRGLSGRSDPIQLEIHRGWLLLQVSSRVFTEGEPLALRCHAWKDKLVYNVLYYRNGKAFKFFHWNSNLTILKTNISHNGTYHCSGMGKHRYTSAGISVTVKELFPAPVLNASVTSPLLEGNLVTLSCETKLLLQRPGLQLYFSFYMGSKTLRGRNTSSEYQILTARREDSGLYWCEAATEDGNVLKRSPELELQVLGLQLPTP

B1: Bs3-HL-FCA biparatopic anti-5T4 antibody (Bs3 with the scFv in the VH-VL orientation and the L234F, S239C and N434A mutations) (bispecific antibody, human IgG1, kappa)
heavy: QVQLVQSGAEVKKPGASVKVSCKASGYSFTDYYMHWVRQAPGQGLEWMGRVSPNNGATNTNQKFKDRVTMTRDTSISTAYMELRSLRSEDTAVYYCARSTMITSYYFDYWGQGTLVTVSSASTKGPSVFPLAPSSKSTSGGTAALGCLVKDYFPEPVTVSWNSGALTSGVHTFPAVLQSSGLYSLSSVVTVPSSSLGTQTYICNVNHKPSNTKVDKRVEPKSCDKTHTCPPCPAPEFLGGPCVFLFPPKPKDTLMISRTPEVTCVVVDVSHEDPEVKFNWYVDGVEVHNAKTKPREEQYNSTYRVVSVLTVLHQDWLNGKEYKCKVSNKALPAPIEKTISKAKGQPREPQVYTLPPSREEMTKNQVSLTCLVKGFYPSDIAVEWESNGQPENNYKTTPPVLDSDGSFFLYSKLTVDKSRWQQGNVFSCSVMHEALHAHYTQKSLSLSPGKGGGGSGGGGSGGGGSEVQLLESGGGLVQPGGSLRLSCAASGFDFSRYWMTWVRQAPGKCLEWVSEINPDSRTINYTPSLKDRFTISRDNAKNTLYLQMNSLRAEDTAVYYCARPDHDYNPYYFNYWGQGTTVTVSSGGGGSGGGGSGGGGSGGGGSDIVLTQSPASLAVSLGQRATISCRPSQSVSTSSNSYIHWYQQKPGQPPKLLIKYASNLESGVPARFSGSGSGTDFTLTISPVEAEDTATYYCQQSWEIPLTFGCGTKLEIK
light: DIVMTQSPSFLSVSVGDRVTITCKASQSVSTDVAWYQQKPGQAPKLLIYFASDRYTGVPDRFSGSGSGTDFTFTISSLQAEDVAVYYCQQDYSSPPTFGGGTKLEIKRTVAAPSVFIFPPSDEQLKSGTASVVCLLNNFYPREAKVQWKVDNALQSGNSQESVTEQDSKDSTYSLSSTLTLSKADYEKHKVYACEVTHQGLSSPVTKSFNRGEC
notes: also called 5T4-Bs3- FCA; BsAb with the FCA mutations
As for B1, the binding result in the assay with FcγRIIIb and with FcγRIIIa (158V) was “no binding (tested: receptor 0.41 nM to 100 nM)” throughout. In addition, the Kd in assay [1] came out at 0.775 nM; with FcγRI (Abcam), 39.6 nM; with FcγRIIa, 91.5 nM; with FcγRIIb, 116 nM.
